Data on 1 molecule can be found in US20090117593A1, “T. Cruzi-derived neurotrophic agents and methods of use therefor” (Tufts University, priority 2006, published 2009).

Entries after “also recorded” stand apart in the source; their conditions may differ.

In test [1] the test system is neuroblastoma N18 cells. The test is described as follows: Neurite outgrowth assay in N18 cells. The format is cell-based. The following applies: soluble or immobilized on plastic (500 μg/ml coating), 17 hours. The protocol: 96-well microtiter plates were coated overnight at 4° C. with the TS or peptides or fragments thereof, or with control proteins laminin (Ln) or bovine serum albumin (BSA) at 500 μg/ml. After removing the compounds, the plates were further incubated with 1% BSA for 1 hour at room temperature and immediately used as substratum for PC12 or N18 (Prasad, K., Biol. Rev. Camb. Philos. Soc., 66:431-451 (1991)) cells in serum-free RPMI/0.2% BSA. Neurite outgrowth was measured using a phase-contrast microscope 17 hours later.

In test [2] the test system is PC12 cells. The test is described as follows: Protection of PC12 cells from apoptosis induced by trophic factor withdrawal (DAPI, TUNEL). The following applies: serum-free RPMI-1640/0.2% BSA, 17 hours, DAPI or TUNEL. The format is cell-based. From the text: PC12 cells were obtained from ATCC (Manassas, Va. (Accession No. CRL-1721)) and cultured on collagen-coated dishes in RPMI 1640 supplemented with 10% horse serum and 5% fetal bovine serum (Greene, L., and Tishler, A., Proc. Natl. Acad. Sci. USA, 73:2424-2428 (1976)). For differentiation and survival experiments, cells were washed three times in serum-free RPMI/0.2% BSA, plated in the same medium in collagen-coated plastic dishes at 2×10^5/ml, without and with growth factors, TS, recombinant proteins, synthetic peptides, for the time and concentrations indicated in the Figures.
Cell staining with 4,6-diamino-2-phenylindole (DAPI). Cells were fixed with 4% formaldehyde in PBS for 5 minutes, washed with PBS, stained with 10 μg/ml DAPI (Sigma) for 2 minutes, washed with PBS, and visualized under UV light using a fluorescent microscope. About 300-400 cells were examined under the microscope to determine the percentage of apoptotic cells.
Cell DNA nick end labeling (TUNEL) (Gavrieli, Y. et al., J. Cell. Biol., 119:493-501 (1992)) assay was performed using a kit purchased from Boehringer Mannheim as described by the manufacturer.
Protection against apoptosis of PC12 cells in serum-free medium containing a test agent (agent N) (e.g., protection induced by TS, TS fragments, NGF or other growth factors), was calculated by the formula: 100%−[(apoptosis(%) of cells kept in RPMI containing test agent N÷apoptosis (%) of cells kept in RPMI)×100%]. Testing the effect of Wortmannin (Sigma) and LY294002 (Sigma) in inhibiting the neuroprotection of TS was performed following the protocol described by others (Yao, R., and Cooper, G., Science, 267:2003-2006 (1995); D'Mello, et al., J. Neurosci., 17:1548-1560 (1997)). In brief, PC12 cells were switched from growth medium to RPMI without and with TS or various other growth factors. After 24 hours, Wortmannin and LY294002 were added to the cultures. After another 24 hours, cells were examined for apoptosis by the DAPI assay, as above.

In test [3] the test system is human Schwann cells. The test is described as follows: Serum withdrawal-induced apoptosis of Schwann cells (DAPI). The format is cell-based.
The test system of test [4] is Akt kinase. The test is described as follows: Immunodetection of activated Akt in PC12 cells. The format is cell-based. The following applies: Western blot, phospho-Akt (Ser 473) antibody; 100 ng/ml. The protocol: PC12 cells were deprived of serum for 24-48 hours, stimulated with TS, TS-F or LTR for 2, 5 or 10 minutes and immediately lysed with 2% SDS. In studies using the PI-3 kinase inhibitor, LY294002 (LY), cells were pre-treated with the inhibitor (1 μM) for 30 min prior to the addition of TS-F or TS. The proteins in the cell lysate were separated in SDS-10% polyacrylamide gels, transferred to nitrocellulose membrane (Bio-Rad) and the phosphorylated form of protein kinase Akt was detected with phospho-Akt (Ser 473) antibody (New England BioLabs, Beverly, Mass.), followed by alkaline phosphatase-conjugated secondary antibody (Promega, Madison, Wis.). Bands corresponding to phospho-Akt (60 kDa) were quantified using a scanning densitometer (Bio-Rad).
On the technique in general: In western blotting, separated proteins are transferred to a membrane and probed.

The test system of test [5] is IL-6. The experiment in a line: IL-6 secretion by T-24 carcinoma cells (ELISA). The conditions noted are these: 24 hours. The format is cell-based, human. As for the experimental part:
Primary cultures of human intestinal microvascular endothelial cells (HIMEC) isolated from normal jejunal mucosa/submucosal tissue were prepared as described (Strong et al., Gastroenterology 114:1244-1256 (1998)). The HIMEC were cultured in fibronectin-coated plasticware in MCDB medium (Sigma) supplemented with 20% FBS, 90 μg/ml heparin and 50 μg/ml endothelial cell growth factor (Sigma). T-24 cells (ATCC Accession No. HTB-4) were cultured in M199 medium supplemented with 10% FBS. PBMC were purified by Ficoll-Paque gradient as described (Current Protocols in Immunology, pp 7.1.1-7.1.2). Vero cells (ATCC Accession No. CCL-81) were grown in RPMI medium with 5% Nu serum and infected with the Silvio X-10/4 of T. cruzi as described previously (Chuenkova et al., J. Exp. Med. 181:1693-1703 (1995)).
Endothelial cells and T-24 cells were plated on 24-well plates at a density of 1×10^3 cells/well, while peripheral blood mononuclear cells (PBMC) were plated in the similar wells at 1×10^6/well. Triplicat cultures of cells were incubated test agents for a predetermined amount of time. […] Cytokines and chemokines released in the culture supernatants were measured by ELISA assay following the instructions of the manufacturer (Endogen). The cytokines tested were IL-1β, IL-4, IL-8, […], IL-12, IFN-γ, TNF-α, and the chemokines RANTES and MCP-1. Negative controls were cells incubated in medium containing polymixin B at 10 μg/ml, and positive controls were cells incubated with bacterial LPS at the low ng/ml range (for PBMC or HIMEC) or in the μg/ml range for carcinoma T-24 cells. In some experiments, IL-1β or TNFα were used as positive control for cytokine release.

Test [6] can be described thus: Trans-sialidase assay. The test is classed as biochemical. As for the experimental part: The trans-sialidase assay was performed as described (Scudder, P. et al., J. Biol. Chem., 268:9886-9891 (1993)) with slight modifications. Various amounts of intact enzyme or enzyme fragments were added to 50 mM PBS, Ph 7.2, containing 15% fetal calf serum and […] of [^14C]N-acetyllactosamine (4×10^5 dpm), 50 μg BSA and 0.02% NaN3 in a volume of 60 μl. After incubation for a predetermined amount of time at room temperature, the reaction mixture was diluted to 1.0 ml with distilled water and applied to a column containing 1.0 ml Q-Sepharose equilibrated with water. Sialylated product was eluted with 1 M NaCl and quantified by scintillation counting.
TS enzymatic activity was measured by the sialylation of the acceptor ^14C-labeled N-acetyllactosamine on anion exchange resins (Scudder, P. et al., J. Biol. Chem. 268:9886-9891 (1993)). Recombinant TSA-1, was expressed on insect sf9 cells and purified from serum-free medium by ion exchange chromatography (monoQ) and preparative SDS-PAGE (Wrightsman, R. A. et al., J. Immunol., 153:3148-3154 (1994).

Test [7] concerns Akt kinase. The experiment in a line: Immunodetection and kinase assay of activated Akt in Schwann cells.
Procedure: Schwann cells, grown in 10% FCS to 70% confluency in 6-well plates, were switched to DMEM containing 0.1% FCS for 48 hours to reduce basal Akt phosphorylation. Then the cells were placed in serum-free DMEM medium for 2 hours and challenged with TS, CD or other test factors for predetermined periods of time. When the PI-3 kinase inhibitor LY294002 (Sigma) was used, the inhibitor was added to the serum-starved cells 30 minutes before challenge with TS or CD. Cell samples were lysed with lysis buffer (20 mM Tris, pH 7.5, 150 mM NaCl, 1 mM EDTA, 1% Triton X-100 (t-Octylphenoxypolyethoxyethanol), 2.5 mM sodium pyrophosphate, 1 mM glycerophosphate, 1 mM Na3VO4, 1 μg/ml leupeptin and 1 mM Phenymethylsulfonyl fluoride (PMSF)). Samples (40 μg) were run on 10% SDS-Page, blotted to nitrocellulose paper and analyzed by Western (immuno) blot with monoclonal antibody specific for P-Ser473 of Akt (New England Biolabs). Reaction was visualized by chemiluminescence using the ECL kit (New England Nuclear).
Enzymatic activity of Akt kinase was assessed using the synthetic substrate GSK-3α-fusion protein (Cell Signaling Technology, Beverly, Mass.), according to the protocol provided by Cell Signaling Technology. In short, lysates of Schwann cells subjected to various treatments were immunoprecipitated with Akt antibody coupled to agarose beads, and the immunoprecipitates incubated with GSK-3α-fusion protein as the substrate for Akt phosphorylation, in the presence of 200 μM ATP. Phosphorylation of GSK-3 fusion protein was detected by Western blot using phospho-GSK-3αβ (Ser21/9)-specific antibody (Cell Signaling Technology). The reaction product was identified by chemiluminescence using the ECL kit (New England Nuclear).

B1: TS-F: recombinant full catalytic domain of TS, amino acid residues 33-666 (protein, listed as Trypanosoma cruzi)
chain: ETQIAIKNSRVSSVSRVVDPTVIVKGNKLYVLVGSYYSSRSYWSSHGDARDWDILLAVGEVTKSTAGGKITASIKWGSPVSLKKFFPAEMEGMHTNQFLGGAGVAIVASNGNLVYPVQVTNKRKQVFSKIFYSEDDGKTWKFGKGRSDFGCSEPVALEWEGKLIINTRVDWKRRLVYESSDMEKPWVEAVGTVSRVWGPSPKSNQPGSQTSFTAVTIEGMRVMLFTHPLNFKGRCVRDRLNLWLTDNQRIYNVGQVSIGDENSAYSSVLYKDDKLYCLHEINTDEVYSLVFARLVGELRIIKSVLRSWKNWTATCPAFAPLLIQPLRRQRVVVVPLSPRLVLLAFCRQRLPKRMGGSYRCVNASTANAERVRNGLKFAGVGGGALWPVSQQGQNQRYRFANHAFTLVASVTIHEAPRAASPLLGASLDSSGGKKLLGLSYDEKHQWQPIYGSTPVTPTGSWETGKRYHLVLTMANKIGSVYIDGELLEGSGQTVVPDGRTPDISHFYVGGYKRSDMPTISHVTVNNVLLYNRRQLNTEEIRTLFLSQDLIGTEAHMDSSSDSSAHSTPSTPADSSAHSTPSTPVDSSAHSTPSTPADSSAHGTPSTPVDSSAHGTPSTPADSSAHGTPSTPVDS
On to B1, for which, in test [1], the “neurite outgrowth in N18 cells” value is “induced neurite outgrowth to about the same extent as the intact enzyme”. Further, in test [2], the “protection of PC12 cells from apoptosis induced by trophic factor withdrawal” value was “PC12 cell survival being induced by TS-F”. In test [3] (CD 500 ng/ml), the “survival of Schwann cells transfected with dominant negative PTEN mutant (pG129R)” value was “did not detectably enhance Akt phosphorylation and survival”. The “survival of control Schwann cells transfected with GFP vector” value in test [3] (CD 500 ng/ml, serum-free, 48 hours) is “did increase survival of the cells”. For the same molecule, in test [3] (CD 500 ng/ml, serum-free, 48 hours, listed as CD), the “survival of Schwann cells over expressing kinase-inactive Akt (AktKI)” value is listed as “did not increase survival of the cells; also recorded: did not promote survival”. Further, the “fragmented nuclei in Schwann cells transfected with empty vector (neo)” value in test [3] (CD 500 ng/ml, serum-starved) was “decreased the number of fragmented nuclei by about ten-fold”. In test [3] (CD 500 ng/ml, listed as CD), the “rescue from apoptosis of Schwann cells over expressing PTEN” value was “did not rescue cells from apoptotic death; also recorded: did not rescue Schwann cells that over expressed PTEN from apoptosis”. Further, the “inhibition of serum withdrawal-induced apoptosis of Schwann cells” value in test [3] (serum-free DMEM, 24-72 hours, listed as CD) is recorded as “protected Schwann cells against apoptosis; also recorded: nearly as effective in protecting Schwann cells from apoptosis as 2% serum; also recorded: protected human Schwann cells from apoptosis; also recorded: nearly as effective as 2% serum at inhibiting apoptosis; also recorded: dose-dependent inhibition of serum withdrawal-induced apoptosis”. For the same molecule, the “phosphorylation (activation) of Akt kinase in PC12 cells” value in test [4] was “effective in activating Akt”. Further, the “IL-6 secretion by T-24 cells” value in test [5] is on record as “did not promote IL-6 release from T-24 cells”. Moreover, the “trans-sialidase (enzymatic) activity” value in test [6] is recorded as “enzymatically active”. Further, in test [7] (CD 500 ng/ml), the “Akt phosphorylation in Schwann cells transfected with dominant negative PTEN mutant” value was “did not detectably enhance Akt phosphorylation”, the “Akt phosphorylation in Schwann cells transfected with empty vector (neo)” value is “boosted levels of phospho-Akt”, the “time within which CD activated Schwann cell Akt kinase” value is 1 to 5 min and the “transience of Akt activation in Schwann cells” value was “phospho-Akt not detected after 15 min”. Besides, the “Akt kinase activity in control GFP-transfected Schwann cells” value in test [7] (CD 500 ng/ml, 2 minutes, GSK-3α substrate) is recorded as “stimulation of Akt activity”. In addition, the “Akt kinase activity in Schwann cells over expressing AktKI” value in test [7] (CD 500 ng/ml, 2 minutes, GSK-3α substrate, listed as CD) is on record as “inability of CD to enhance endogenous Akt enzymatic activity; also recorded: did not activate Akt kinase”. For the same molecule, the “Akt phosphorylation in Schwann cells over expressing PTEN” value in test [7] (CD 500 ng/ml, listed as CD) is listed as “did not result in the generation of phospho-Akt; also recorded: did not induce phosphorylation of Akt kinase”. In test [7] (Western blot P-Akt (Ser473), listed as CD), the “phosphorylation (activation) of Akt kinase in Schwann cells” value is listed as “induced transient phosphorylation of Akt kinase”.
